Values of other authors as cited in PMC3567247.
Like-named read-outs stand apart in the source and are kept apart here. One block for each substance: values may come before it.

Tests used:
BCMA (Homo sapiens) [1] = target: BCMA (Homo sapiens) (UniProt Q02223)
BR3 (Homo sapiens) [2] = target: BR3 (Homo sapiens) (UniProt Q96RJ3)
TACI (Homo sapiens) = TACI (Homo sapiens) (UniProt O14836)
BCMA (Homo sapiens) [3] = target: BCMA (Homo sapiens) (UniProt Q02223); assay: surface plasmon resonance
BR3 (Homo sapiens) [4] = target: BR3 (Homo sapiens) (UniProt Q96RJ3); assay: surface plasmon resonance
[5] = target: Ribonuclease Inhibitor (Sus scrofa) (UniProt P10775)
Ribonuclease Inhibitor = Ribonuclease Inhibitor (UniProt P13489)
BPTI (Bos taurus) = BPTI (Bos taurus) (UniProt P00974)
Im9 (Escherichia coli) = Im9 (Escherichia coli) (UniProt P13479)
CD40 (Homo sapiens) = CD40 (Homo sapiens) (UniProt P25942)
[6] = target: Barstar (Bacillus amyloliquefaciens) (UniProt P11540)
CD40L (Homo sapiens) = CD40L (Homo sapiens) (UniProt P29965)
CD40L (Homo sapiens), sequence (P29965 113-261): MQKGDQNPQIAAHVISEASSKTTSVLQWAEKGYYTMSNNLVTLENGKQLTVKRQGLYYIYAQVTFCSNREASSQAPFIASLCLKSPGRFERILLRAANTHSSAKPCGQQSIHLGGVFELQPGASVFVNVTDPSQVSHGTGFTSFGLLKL

BR3 (Homo sapiens), sequence (Q96RJ3 whole entry): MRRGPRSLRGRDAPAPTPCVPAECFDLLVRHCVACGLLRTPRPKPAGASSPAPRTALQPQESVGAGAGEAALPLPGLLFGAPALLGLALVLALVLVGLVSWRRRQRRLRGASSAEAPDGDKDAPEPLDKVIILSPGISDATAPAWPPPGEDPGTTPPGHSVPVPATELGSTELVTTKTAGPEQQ
Ribonuclease A, sequence (P61823 27-150): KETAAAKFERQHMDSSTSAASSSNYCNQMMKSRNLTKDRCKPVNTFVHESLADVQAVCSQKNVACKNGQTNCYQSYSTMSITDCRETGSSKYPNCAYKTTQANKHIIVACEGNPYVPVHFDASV
BCMA (Homo sapiens), sequence (Q02223 whole entry): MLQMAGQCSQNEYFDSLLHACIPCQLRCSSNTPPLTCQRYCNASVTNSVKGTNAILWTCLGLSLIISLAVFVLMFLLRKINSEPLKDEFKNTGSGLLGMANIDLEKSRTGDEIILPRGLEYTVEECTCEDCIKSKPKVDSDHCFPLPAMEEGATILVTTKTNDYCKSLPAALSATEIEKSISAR
APRIL, sequence (O75888 105-250): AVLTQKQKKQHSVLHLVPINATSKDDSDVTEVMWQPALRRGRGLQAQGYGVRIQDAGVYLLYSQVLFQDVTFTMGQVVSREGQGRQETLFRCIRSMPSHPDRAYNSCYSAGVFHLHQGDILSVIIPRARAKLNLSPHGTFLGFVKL
CD40, sequence (P25942 21-277): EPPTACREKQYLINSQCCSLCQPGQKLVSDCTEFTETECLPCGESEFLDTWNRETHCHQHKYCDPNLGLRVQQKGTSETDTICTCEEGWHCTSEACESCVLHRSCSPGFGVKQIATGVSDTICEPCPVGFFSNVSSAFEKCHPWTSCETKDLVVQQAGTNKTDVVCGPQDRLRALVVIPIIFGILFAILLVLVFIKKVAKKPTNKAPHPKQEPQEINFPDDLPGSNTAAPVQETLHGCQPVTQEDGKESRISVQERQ
CD40 (Homo sapiens), sequence (P25942 21-277): as above
Im9 (Escherichia coli), sequence (P13479 whole entry): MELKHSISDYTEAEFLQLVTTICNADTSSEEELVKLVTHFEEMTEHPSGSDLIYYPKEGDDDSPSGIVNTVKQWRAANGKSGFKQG
Barnase, sequence (P00648 48-157): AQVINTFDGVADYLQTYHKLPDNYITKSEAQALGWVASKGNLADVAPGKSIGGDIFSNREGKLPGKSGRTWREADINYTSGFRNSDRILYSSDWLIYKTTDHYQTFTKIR
Colicin E9 nuclease, sequence (P09883 449-582): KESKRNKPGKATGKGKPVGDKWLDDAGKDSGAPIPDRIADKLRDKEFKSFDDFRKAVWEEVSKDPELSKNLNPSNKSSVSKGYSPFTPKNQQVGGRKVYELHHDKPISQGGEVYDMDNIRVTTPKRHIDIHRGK
TACI (Homo sapiens), sequence (O14836 whole entry): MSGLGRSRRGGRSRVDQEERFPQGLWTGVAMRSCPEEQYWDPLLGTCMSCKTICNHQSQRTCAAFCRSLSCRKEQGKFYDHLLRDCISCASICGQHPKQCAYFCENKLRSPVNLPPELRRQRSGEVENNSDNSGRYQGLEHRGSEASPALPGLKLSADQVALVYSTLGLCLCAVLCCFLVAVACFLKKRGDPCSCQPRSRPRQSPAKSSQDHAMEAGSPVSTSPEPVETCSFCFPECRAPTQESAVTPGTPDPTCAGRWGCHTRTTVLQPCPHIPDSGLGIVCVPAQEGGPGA
Ribonuclease Inhibitor (Sus scrofa), sequence (P10775 whole entry): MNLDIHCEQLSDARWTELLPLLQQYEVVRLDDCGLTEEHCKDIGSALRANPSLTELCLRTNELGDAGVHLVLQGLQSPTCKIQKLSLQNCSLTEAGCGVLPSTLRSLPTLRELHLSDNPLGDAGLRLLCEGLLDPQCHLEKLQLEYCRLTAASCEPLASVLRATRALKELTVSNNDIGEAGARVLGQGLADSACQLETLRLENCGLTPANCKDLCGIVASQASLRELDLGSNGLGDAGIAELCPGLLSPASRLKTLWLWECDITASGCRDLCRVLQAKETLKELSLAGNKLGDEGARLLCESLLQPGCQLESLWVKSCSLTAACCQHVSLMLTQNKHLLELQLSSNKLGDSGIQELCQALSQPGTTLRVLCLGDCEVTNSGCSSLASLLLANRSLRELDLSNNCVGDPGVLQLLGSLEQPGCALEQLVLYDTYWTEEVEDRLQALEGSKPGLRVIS
Barstar (Bacillus amyloliquefaciens), sequence (P11540 2-90): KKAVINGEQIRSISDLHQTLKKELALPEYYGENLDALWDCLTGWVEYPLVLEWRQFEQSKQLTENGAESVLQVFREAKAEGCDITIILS
Ribonuclease Inhibitor, sequence (P13489 2-461): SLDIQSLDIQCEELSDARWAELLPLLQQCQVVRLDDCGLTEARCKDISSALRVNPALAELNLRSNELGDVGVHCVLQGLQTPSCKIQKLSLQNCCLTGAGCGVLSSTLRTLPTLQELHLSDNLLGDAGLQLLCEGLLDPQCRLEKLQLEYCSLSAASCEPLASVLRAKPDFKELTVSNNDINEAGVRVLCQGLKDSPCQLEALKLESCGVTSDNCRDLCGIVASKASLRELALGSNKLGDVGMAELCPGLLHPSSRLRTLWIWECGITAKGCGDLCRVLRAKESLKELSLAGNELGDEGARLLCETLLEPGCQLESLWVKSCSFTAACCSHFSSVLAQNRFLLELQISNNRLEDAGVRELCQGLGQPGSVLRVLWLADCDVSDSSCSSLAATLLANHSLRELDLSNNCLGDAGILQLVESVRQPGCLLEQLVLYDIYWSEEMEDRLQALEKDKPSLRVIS
CD40L, sequence (P29965 113-261): as the sequence (P29965 113-261) above

Substance: trypsinogen (from UniProt P00760)
Kd (BPTI (Bos taurus)): 0.06 pM

Substance: Colicin E9 nuclease (from UniProt P09883)
Kd (Im9 (Escherichia coli)): 0.024 pM

Substance: Barnase (from UniProt P00648)
Kd [6]: 0.0002 nM

Substance: CD40 (from UniProt P25942)
Kd (CD40L (Homo sapiens)): 13000 nM

Further lines, results first:

Kd (BCMA (Homo sapiens) [1]): 1500 nM
Kd (BR3 (Homo sapiens) [2]): 15 nM
Kd (TACI (Homo sapiens)): 13 nM
Substance: BAFF (from UniProt Q9Y275)

Kd (BCMA (Homo sapiens) [3]): 15 nM
Kd (BR3 (Homo sapiens) [4]): > 3000 nM
Substance: APRIL (from UniProt O75888)

Kd [5]: 0.059 pM
Kd (Ribonuclease Inhibitor): 0.059 pM
Substance: Ribonuclease A (from UniProt P61823)

Kd (CD40 (Homo sapiens)): 13000 nM
Substance: CD40L (from UniProt P29965)
